{"source": "patent US20220168400A1", "about": "“USE OF A MANGANESE SUPEROXIDE DISMUTASE WITH HIGH STABILITY IN THE PREVENTION OR TREATMENT OF CEREBRAL STROKE” (CARRY HEALTH BIOPHARMACEUTICALS (HANGZHOU) CO., LTD., priority 2019, published 2022)", "molecules": {"B1": {"name": "MS-SOD: manganese superoxide dismutase with high stability, gene from Thermus thermophilus HB27 expressed in E. coli; amino acid sequence SEQ ID NO: 4 (protein)", "chain": "MPYPFKLPDLGYPYEALEPHIDAKTMEIHHQKHHGAYVTNLNAALEKYPYLHGVEVEVLLRHLAALPQDIQTAVRNNGGGHLNHSLFWRLLTPGGAKEPVGELKKAIDEQFGGFQALKEKLTQAAMGRFGSGWAWLVKDPFGKLHVLSTPNQDNPVMEGFTPIVGIDVWEHAYYLKYQNRRADYLQAIWNVLNWDVAEEFFKKA", "modifications": "Amino acid sequence for MS-SOD"}}, "key": {"[1]": {"tested_on": "middle cerebral artery occlusion (MCAO) model in C57BL/6J mice", "experiment": "Modified neurological severity score in MCAO model", "assay_type": "in vivo", "settings": "vs model group", "method": "(3) MS-SOD1 group (10 mice): mice aged 4 weeks were fed with drinking water supplemented with MS-SOD for 4 weeks (3 U/day/g body weight), and then subjected to establish middle cerebral artery occlusion model;\n(4) MS-SOD2 group (10 mice): after establishing middle cerebral artery occlusion model, the mice were intragastrically administered with MS-SOD 600 U once when they waked up from the anesthesia. […]\nThe procedure was performed on each group of mice. […] The mice in groups 2-4 were scored by double blind method.\nFinally, the differences of different intervention conditions and MCAO model establishment on the degree of cerebral injury and neurological severity in mice were analyzed. All data were expressed as mean ±standard deviation. […]"}, "[2]": {"tested_on": "cerebral ischemia model in Albino strain zebrafish", "experiment": "Ponatinib-induced cerebral ischemia model in zebrafish", "assay_type": "in vivo", "settings": "for Number of zebrafish with cerebral ischemia / Incidence of cerebral ischemia: n = 20; for Incidence of cerebral ischemia: model control 100%", "method": "Melanin allele mutated Albino strain zebrafish at 2 days post fertilization (2 dpf) was administered with an aqueous ponatinib solution (1 μg/mL) for 18 hours to establish a cerebral ischemia model in zebrafish. 180 melanin allele mutated Albino strain zebrafishes at 2 days post fertilization (2 dpf) were randomly selected. 30 zebrafishes were treated in each well (experiment group), and aqueous MS-SOD solutions with concentrations of 222, 667 and 2000 μg/mL were administrated respectively, the concentration of positive control drug aspirin was 50 μg/m L, and the normal control group and the model control group were set at the same time. The volume of each well was 3 mL. After MS-SOD treatment for a period of time, except for the normal control group, all the other experiment groups were simultaneously administrated with aqueous ponatinib solution to induce the cerebral ischemia model in zebrafish. After 18 hours of co-treatment with MS-SOD and ponatinib, 20 fish were randomly selected from each well and stained with o-Dianisidine. After staining, photos were taken and data were collected to count the number of zebrafish with cerebral ischemia and calculate the incidence of cerebral ischemia in zebrafish of each experiment group."}, "[3]": {"tested_on": "cerebral hemorrhage model in wild-type AB strain zebrafish", "experiment": "Simvastatin-induced cerebral hemorrhage model in zebrafish (incidence)", "assay_type": "in vivo", "settings": "for Number of zebrafish with cerebral hemorrhage / Incidence of cerebral hemorrhage: n = 30; for Incidence of cerebral hemorrhage: model control 83%", "method": "1 dpf wild-type AB strain zebrafish was administered with an aqueous simvastatin solution (0.5 μM) for 18 hours to establish a cerebral hemorrhage model in zebrafish. 180 wild-type AB strain zebrafishes at 1 day post fertilization (1 dpf) were randomly selected and put in a six-well plate, 30 per well (experiment group). Simvastatin was used to induce a cerebral hemorrhage model in zebrafish. Aqueous MS-SOD solutions with concentrations of 222, 667 and 2000 μg/mL were administrated respectively, the concentration of positive control drug icariin was 30 μM, and the normal control group and the model control group were set at the same time. The volume of each well was 3 mL. After 18 hours of co-treatment with MS-SOD and simvastatin, 30 zebrafishes from each group were selected and observed under a microscope, photos were taken and saved. The number of zebrafish with cerebral hemorrhage was counted, and the incidence of cerebral hemorrhage in zebrafish of each experiment group was calculated."}, "[4]": {"tested_on": "cerebral hemorrhage model in wild-type AB strain zebrafish", "experiment": "Blood flow volume in simvastatin-induced cerebral hemorrhage model in zebrafish", "assay_type": "in vivo", "settings": "for Blood flow volume (mean ± SE): n = 10, model control 0.13, normal control 0.30 nL/s", "method": "3 dpf wild-type AB strain zebrafish was administered with an aqueous simvastatin solution (0.5 μM) for 18 hours to establish a cerebral hemorrhage model in zebrafish. 180 wild-type AB strain zebrafishes at 3 days post fertilization (3 dpf) were randomly selected and put in a six-well plate, 30 per well (experiment group). Aqueous MS-SOD solutions with concentrations of 222, 667 and 2000 μg/mL were administrated respectively, the concentration of positive control drug icariin was 30 μM, and the normal control group (the zebrafishes were treated with water for fish) and the model control group were set at the same time. The volume of each well was 3 mL. After treatment of zebrafishes with samples for 4 hours, except for the normal control group, the other experiment groups were treated with simvastatin for 18 hours to establish the cerebral hemorrhage model. After the treatment, 10 zebrafishes from each group were randomly selected and placed in a heart rate and blood flow analysis system to record blood flow video of zebrafish, and analyze the blood flow volume (O) of zebrafish. The statistical significance of the blood flow volume was used to evaluate the improvement effect of MS-SOD on blood flow volume of cerebral hemorrhage. The formula of the improvement effect of MS-SOD on blood flow volume of cerebral hemorrhage was as follows: [formula] Statistical analysis was performed using variance analysis and Dunnett's T-test, and p<0.05 indicated a significant difference. 4."}, "[5]": {"experiment": "Specific activity of MS-SOD", "assay_type": "biochemical", "settings": "MS-SOD used in the zebrafish experiments"}}, "note": "Where “and” joins values, the source holds several entries; their conditions need not be identical. Identical values can stand only once.", "data": [{"molecule": "B1", "values": [{"measurement": "neurological severity score", "setting": "[1]; MS-SOD1 group: 3 U/day/g body weight for 4 weeks before MCAO, P=0.281", "value": "not significantly improved"}, {"measurement": "neurological severity score (mNSS)", "setting": "[1]; MS-SOD2 group: 600 U intragastrically once after MCAO, P=0.05", "value": "significantly reduced"}, {"measurement": "Improvement effect on cerebral ischemia", "setting": "[2]; MS-SOD 222 μg/mL", "value": 60, "unit": "%"}, {"measurement": "Number of zebrafish with cerebral ischemia", "setting": "[2]; MS-SOD 222 μg/mL", "value": 8}, {"measurement": "Incidence of cerebral ischemia", "setting": "[2]; MS-SOD 222 μg/mL", "value": 40, "unit": "%"}, {"measurement": "Improvement effect on cerebral ischemia", "setting": "[2]; MS-SOD 667 μg/mL", "value": 65, "unit": "%"}, {"measurement": "Number of zebrafish with cerebral ischemia", "setting": "[2]; MS-SOD 667 μg/mL", "value": 7}, {"measurement": "Incidence of cerebral ischemia", "setting": "[2]; MS-SOD 667 μg/mL", "value": 35, "unit": "%"}, {"measurement": "Improvement effect on cerebral ischemia", "setting": "[2]; MS-SOD 2000 μg/mL", "value": 55, "unit": "%"}, {"measurement": "Number of zebrafish with cerebral ischemia", "setting": "[2]; MS-SOD 2000 μg/mL", "value": 9}, {"measurement": "Incidence of cerebral ischemia", "setting": "[2]; MS-SOD 2000 μg/mL", "value": 45, "unit": "%"}, {"measurement": "Improvement effect on cerebral hemorrhage", "setting": "[3]; MS-SOD 222 μg/mL", "value": 28, "unit": "%"}, {"measurement": "Number of zebrafish with cerebral hemorrhage", "setting": "[3]; MS-SOD 222 μg/mL", "value": 18}, {"measurement": "Incidence of cerebral hemorrhage", "setting": "[3]; MS-SOD 222 μg/mL", "value": 60, "unit": "%"}, {"measurement": "Improvement effect on cerebral hemorrhage", "setting": "[3]; MS-SOD 667 μg/mL", "value": 20, "unit": "%"}, {"measurement": "Number of zebrafish with cerebral hemorrhage", "setting": "[3]; MS-SOD 667 μg/mL", "value": 20}, {"measurement": "Incidence of cerebral hemorrhage", "setting": "[3]; MS-SOD 667 μg/mL", "value": 67, "unit": "%"}, {"measurement": "Improvement effect on cerebral hemorrhage", "setting": "[3]; MS-SOD 2000 μg/mL", "value": 32, "unit": "%"}, {"measurement": "Number of zebrafish with cerebral hemorrhage", "setting": "[3]; MS-SOD 2000 μg/mL", "value": 17}, {"measurement": "Incidence of cerebral hemorrhage", "setting": "[3]; MS-SOD 2000 μg/mL", "value": 57, "unit": "%"}, {"measurement": "Blood flow volume improvement effect", "setting": "[4]; MS-SOD 222 μg/mL", "value": 59, "unit": "%"}, {"measurement": "Blood flow volume (mean ± SE)", "setting": "[4]; MS-SOD 222 μg/mL", "value": "0.23 nL/s and 0.23 ± 0.014 nL/s"}, {"measurement": "Blood flow volume improvement effect", "setting": "[4]; MS-SOD 667 μg/mL", "value": 71, "unit": "%"}, {"measurement": "Blood flow volume (mean ± SE)", "setting": "[4]; MS-SOD 667 μg/mL", "value": "0.25 nL/s and 0.25 ± 0.024 nL/s"}, {"measurement": "Blood flow volume improvement effect", "setting": "[4]; MS-SOD 2000 μg/mL", "value": 71, "unit": "%"}, {"measurement": "Blood flow volume (mean ± SE)", "setting": "[4]; MS-SOD 2000 μg/mL", "value": "0.25 nL/s and 0.25 ± 0.019 nL/s"}, {"measurement": "specific activity", "setting": "[5]", "value": 5, "unit": "U/μg"}]}]}
